According to US20140274782A1, “AFFINITY REAGENTS AND METHODS FOR DETECTION, PURIFICATION, AND PROTEOMIC ANALYSIS OF METHYLATED PROTEINS” (The Board of Trustees of the Leland Stanford Junior …, priority 2013, published 2014):

T1: G9a and GLP (Homo sapiens, UniProt Q96KQ7+Q9H9B1)
T1 sequence (Q96KQ7 2-1210 limits assumed): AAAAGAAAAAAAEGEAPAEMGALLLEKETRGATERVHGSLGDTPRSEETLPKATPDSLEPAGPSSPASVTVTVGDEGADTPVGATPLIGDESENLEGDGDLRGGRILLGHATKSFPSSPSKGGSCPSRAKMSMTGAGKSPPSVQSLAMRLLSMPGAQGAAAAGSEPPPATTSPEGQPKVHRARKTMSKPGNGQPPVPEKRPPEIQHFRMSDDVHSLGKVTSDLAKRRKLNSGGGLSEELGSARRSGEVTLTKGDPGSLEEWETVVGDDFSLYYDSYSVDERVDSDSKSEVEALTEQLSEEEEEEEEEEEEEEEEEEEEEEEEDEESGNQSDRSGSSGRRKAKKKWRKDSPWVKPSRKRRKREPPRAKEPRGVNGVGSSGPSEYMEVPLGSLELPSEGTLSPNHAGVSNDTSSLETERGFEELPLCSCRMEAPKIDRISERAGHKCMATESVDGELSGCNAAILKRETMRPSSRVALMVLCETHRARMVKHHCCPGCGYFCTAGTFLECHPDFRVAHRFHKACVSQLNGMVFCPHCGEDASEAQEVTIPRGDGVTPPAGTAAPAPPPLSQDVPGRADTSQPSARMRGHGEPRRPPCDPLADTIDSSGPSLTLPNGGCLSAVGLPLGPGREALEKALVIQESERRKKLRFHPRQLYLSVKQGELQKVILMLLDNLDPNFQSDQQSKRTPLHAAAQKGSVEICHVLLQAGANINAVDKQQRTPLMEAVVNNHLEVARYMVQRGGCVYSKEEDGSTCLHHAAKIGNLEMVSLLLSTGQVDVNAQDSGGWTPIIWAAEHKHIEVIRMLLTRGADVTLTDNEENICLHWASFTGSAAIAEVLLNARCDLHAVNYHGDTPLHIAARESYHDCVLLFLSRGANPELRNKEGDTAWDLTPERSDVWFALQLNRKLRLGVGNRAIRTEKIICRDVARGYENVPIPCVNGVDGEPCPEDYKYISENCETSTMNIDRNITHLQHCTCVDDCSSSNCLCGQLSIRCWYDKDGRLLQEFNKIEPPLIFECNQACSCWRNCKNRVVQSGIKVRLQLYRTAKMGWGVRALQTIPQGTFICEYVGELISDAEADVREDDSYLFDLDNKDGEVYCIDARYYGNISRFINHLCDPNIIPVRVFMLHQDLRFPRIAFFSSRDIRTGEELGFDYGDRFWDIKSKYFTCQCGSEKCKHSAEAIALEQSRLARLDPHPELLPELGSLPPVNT
T1 sequence (Q9H9B1 2-1298 limits assumed): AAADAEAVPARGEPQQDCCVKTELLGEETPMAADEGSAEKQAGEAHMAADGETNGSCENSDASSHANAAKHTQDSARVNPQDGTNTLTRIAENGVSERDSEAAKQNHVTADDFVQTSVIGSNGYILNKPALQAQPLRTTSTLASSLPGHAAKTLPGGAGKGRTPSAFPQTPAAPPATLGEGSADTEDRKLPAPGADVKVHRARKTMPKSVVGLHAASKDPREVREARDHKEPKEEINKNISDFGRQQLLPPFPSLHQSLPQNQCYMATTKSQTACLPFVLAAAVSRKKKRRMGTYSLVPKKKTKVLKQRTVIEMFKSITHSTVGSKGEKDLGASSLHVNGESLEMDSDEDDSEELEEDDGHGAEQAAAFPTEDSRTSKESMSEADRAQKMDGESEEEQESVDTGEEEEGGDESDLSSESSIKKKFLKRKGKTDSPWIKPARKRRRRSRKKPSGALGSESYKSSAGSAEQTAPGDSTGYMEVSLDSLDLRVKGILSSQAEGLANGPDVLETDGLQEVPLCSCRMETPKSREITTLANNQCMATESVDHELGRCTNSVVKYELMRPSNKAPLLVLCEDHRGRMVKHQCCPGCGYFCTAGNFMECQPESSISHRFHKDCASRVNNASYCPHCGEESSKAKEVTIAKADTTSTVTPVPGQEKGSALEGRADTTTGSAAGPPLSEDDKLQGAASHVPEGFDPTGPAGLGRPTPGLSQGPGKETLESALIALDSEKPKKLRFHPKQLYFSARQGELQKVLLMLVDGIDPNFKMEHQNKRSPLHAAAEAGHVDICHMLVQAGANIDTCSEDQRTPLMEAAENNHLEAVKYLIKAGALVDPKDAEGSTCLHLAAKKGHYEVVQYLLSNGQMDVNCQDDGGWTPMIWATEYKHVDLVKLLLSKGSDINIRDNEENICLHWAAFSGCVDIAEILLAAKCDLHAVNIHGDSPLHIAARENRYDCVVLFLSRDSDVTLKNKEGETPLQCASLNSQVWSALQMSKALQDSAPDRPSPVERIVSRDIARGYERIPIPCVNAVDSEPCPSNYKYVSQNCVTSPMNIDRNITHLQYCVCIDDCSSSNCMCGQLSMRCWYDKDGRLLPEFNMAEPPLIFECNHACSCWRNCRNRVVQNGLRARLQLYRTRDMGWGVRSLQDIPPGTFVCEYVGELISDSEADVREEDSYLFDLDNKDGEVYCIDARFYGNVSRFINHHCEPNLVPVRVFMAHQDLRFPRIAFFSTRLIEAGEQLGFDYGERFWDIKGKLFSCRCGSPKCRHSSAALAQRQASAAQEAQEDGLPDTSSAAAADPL


Assays:
3×MBT domain of L3MBTL1 = experiment: Triple SILAC pull-down, 3xMBT/3xMBTD355N ratio (cytoplasmic, nuclear and chromatin fractions of 293T cells); format: binding, human; details: SILAC ratio 3xMBT vs 3xMBTD355N pull-down, 293T cells, all values in log base 2; for 3xMBT/D355N UNC Heavy: experiment with UNC0638 in heavy SILAC media; for 3xMBT/D355N UNC Light: experiment with UNC0638 in light SILAC media;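 on all read-outs here: proteins quantified with MaxQuant, requiring at least two unique peptides and quantification in both label directions, normalized to the mean of proteins from a digested loading control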
G9a and GLP = biological target: T1, G9a and GLP; experiment: Triple SILAC pull-down after UNC0638 treatment of 293T cells, DMSO/UNC0638 ratio of protein captured by 3×MBT; format: cell-based; parameters: endogenous in cells; host or cells: HEK 293T; details: all values in log base 2; for Relative to UNC0638 UNC Heavy / Relative to UNC0638 UNC Light: SILAC ratio DMSO relative to UNC0638, pull-down with 3xMBT; for Relative to UNC0638 UNC Heavy: UNC0638 in heavy SILAC media; for Relative to UNC0638 UNC Light: UNC0638 in light SILAC media; for Relative to UNC0638 Average: average of UNC Light and UNC Heavy experiments;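 on all read-outs here: mass spectrometry (Q-Exactive) SILAC quantitation, DMSO/UNC0638 ratio computed after subtracting 3×MBTD355N mutant pull-down background, only proteins with at least twofold 3×MBT over mutant signal considered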
Description: For UNC0638 treatments cells were treated for 24 hours with UNC0638 at 2.5 μM or DMSO vehicle control. One experiment treated cells in light media with UNC0638, the other treated cells in heavy media. Both experiments included cells in medium media treated with DMSO for negative control pull-down with 3×MBTD355N.
UNC0638 treatment experiments used a Q-Exactive mass spectrometer (ThermoFisher Scientific). A 25 cm HPLC column with 3 μm Reliasil (Orochem) was used to separate peptides over a 4 hour gradient from 0 to 75% acetonitrile. Ions were generated using a custom nanospray source flowing at 250 nL/minute. Mass spectrometry settings were 70,000 MS1 resolution, data dependent selection of up to 20 precursor ions per cycle, dynamic exclusion of 30 seconds and isolation window of 2 m/z.
For UNC0638 experiments the treated vs. untreated ratio was determined by subtracting the value from 3×MBTD355N prior to dividing values from the light and heavy channels. Only proteins showing a two-fold signal to background ratio (3×MBT/3×MBTD355N) were evaluated as potential G9a/GLP substrates.

Molecule | 3xMBT/D355N UNC Heavy (3×MBT domain of L3MBTL1) [log base 2] | 3xMBT/D355N UNC Light (3×MBT domain of L3MBTL1) [log base 2] | Relative to UNC0638 UNC Heavy (G9a and GLP) [log base 2] | Relative to UNC0638 UNC Light (G9a and GLP) [log base 2] | Relative to UNC0638 Average (G9a and GLP) [log base 2]
SMC1A (protein, UniProt Q14683 1-1233, looked up) Structural maintenance of …: MGFLKLIEIENFKSYKGRQIIGPFQRFTAIIGPNGSGKSNLMDAISFVLGEKTSNLRVKTLRDLIHGAPVGKPAANRAFVSMVYSEEGAEDRTFARVIVGGSSEYKINNKVVQLHEYSEELEKLGILIKARNFLVFQGAVESIAMKNPKERTALFEEISRSGELAQEYDKRKKEMVKAEEDTQFNYHRKKNIAAERKEAKQEKEEADRYQRLKDEVVRAQVQLQLFKLYHNEVEIEKLNKELASKNKEIEKDKKRMDKVEDELKEKKKELGKMMREQQQIEKEIKEKDSELNQKRPQYIKAKENTSHKIKKLEAAKKSLQNAQKHYKKRKGDMDELEKEMLSVEKARQEFEERMEEESQSQGRDLTLEENQVKKYHRLKEEASKRAATLAQELEKFNRDQKADQDRLDLEERKKVETEAKIKQKLREIEENQKRIEKLEEYITTSKQSLEEQKKLEGELTEEVEMAKRRIDEINKELNQVMEQLGDARIDRQESSRQQRKAEIMESIKRLYPGSVYGRLIDLCQPTQKKYQIAVTKVLGKNMDAIIVDSEKTGRDCIQYIKEQRGEPETFLPLDYLEVKPTDEKLRELKGAKLVIDVIRYEPPHIKKALQYACGNALVCDNVEDARRIAFGGHQRHKTVALDGTLFQKSGVISGGASDLKAKARRWDEKAVDKLKEKKERLTEELKEQMKAKRKEAELRQVQSQAHGLQMRLKYSQSDLEQTKTRHLALNLQEKSKLESELANFGPRINDIKRIIQSREREMKDLKEKMNQVEDEVFEEFCREIGVRNIREFEEEKVKRQNEIAKKRLEFENQKTRLGIQLDFEKNQLKEDQDKVHMWEQTVKKDENEIEKLKKEEQRHMKIIDETMAQLQDLKNQHLAKKSEVNDKNHEMEEIRKKLGGANKEMTHLQKEVTAIETKLEQKRSDRHNLLQACKMQDIKLPLSKGTMDDISQEEGSSQGEDSVSGSQRISSIYAREALIEIDYGDLCEDLKDAQAEEEIKQEMNTLQQKLNEQQSVLQRIAAPNMKAMEKLESVRDKFQETSDEFEAARKRAKKAKQAFEQIKKERFDRFNACFESVATNIDEIYKALSRNSSAQAFLGPENPEEPYLDGINYNCVAPGKRFRPMDNLSGGEKTVAALALLFAIHSYKPAPFFVLDEIDAALDNTNIGKVANYIKEQSTCNFQAIVISLKEEFYTKAESLIGVYPEQGDCVISKVLTFDLTKYPDANPNPNEQ | 1.31 | 1.83 | −0.05 | −0.01 | −0.03
GTPBP1 (protein, UniProt O00178 1-669, looked up) GTP-binding protein 1: MATERSRSAMDSPVPASMFAPEPSSPGAARAAAAAARLHGGFDSDCSEDGEALNGEPELDLTSKLVLVSPTSEQYDSLLRQMWERMDEGCGETIYVIGQGSDGTEYGLSEADMEASYATVKSMAEQIEADVILLRERQEAGGRVRDYLVRKRVGDNDFLEVRVAVVGNVDAGKSTLLGVLTHGELDNGRGFARQKLFRHKHEIESGRTSSVGNDILGFDSEGNVVNKPDSHGGSLEWTKICEKSTKVITFIDLAGHEKYLKTTVFGMTGHLPDFCMLMVGSNAGIVGMTKEHLGLALALNVPVFVVVTKIDMCPANILQETLKLLQRLLKSPGCRKIPVLVQSKDDVIVTASNFSSERMCPIFQISNVTGENLDLLKMFLNLLSPRTSYREEEPAEFQIDDTYSVPGVGTVVSGTTLRGLIKLNDTLLLGPDPLGNFLSIAVKSIHRKRMPVKEVRGGQTASFALKKIKRSSIRKGMVMVSPRLNPQASWEFEAEILVLHHPTTISPRYQAMVHCGSIRQTATILSMDKDCLRTGDKATVHFRFIKTPEYLHIDQRLVFREGRTKAVGTITKLLQTTNNSPMNSKPQQIKMQSTKKGPLTKRDEGGPSGGPAVGAPPPGDEASSVGAGQPAASSNLQPQPKPSSGGRRRGGQRHKVKSQGACVTPASGC | −0.64 | 1.80 | −0.27 | 0.13 | −0.07
